Measurements as given in paper PMC12205646.

Target: Hsp90-CYF61 homodimer (used as WT in the ATPase assays) (S. cerevisiae) (UniProt P02829)
Chain of UniProt P02829 (P02829 whole entry): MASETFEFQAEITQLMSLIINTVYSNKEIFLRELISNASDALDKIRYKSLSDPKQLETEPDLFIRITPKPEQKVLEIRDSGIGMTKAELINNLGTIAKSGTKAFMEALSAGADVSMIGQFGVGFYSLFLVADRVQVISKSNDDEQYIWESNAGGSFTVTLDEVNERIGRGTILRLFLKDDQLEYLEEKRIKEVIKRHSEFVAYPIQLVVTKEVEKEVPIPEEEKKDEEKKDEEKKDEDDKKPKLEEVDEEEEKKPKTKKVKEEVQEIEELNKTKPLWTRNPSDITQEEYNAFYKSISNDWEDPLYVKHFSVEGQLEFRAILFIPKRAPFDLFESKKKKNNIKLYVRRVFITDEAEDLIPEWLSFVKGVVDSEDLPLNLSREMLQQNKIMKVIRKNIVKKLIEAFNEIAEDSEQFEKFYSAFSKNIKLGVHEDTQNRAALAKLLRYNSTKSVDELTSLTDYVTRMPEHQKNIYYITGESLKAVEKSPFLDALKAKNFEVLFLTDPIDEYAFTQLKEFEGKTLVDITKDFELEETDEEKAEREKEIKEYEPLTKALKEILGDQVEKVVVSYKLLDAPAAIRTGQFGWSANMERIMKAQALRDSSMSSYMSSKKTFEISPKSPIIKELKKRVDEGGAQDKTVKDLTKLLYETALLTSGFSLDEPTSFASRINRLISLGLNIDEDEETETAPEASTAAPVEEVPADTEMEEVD

stimulation of Hsp90 ATPase activity by Aha1 (ATP-regenerating coupled enzyme assay; 6 uM Aha1, 2 uM Hsp90 dimer): 20 fold
B1: Aha1 (activator of Hsp90 activity 1) cochaperone (natural protein)
chain: MVVNNPNNWHWVDKNCIGWAKEYFKQKLVGVEAGSVKDKKYAKIKSVSSIEGDCEVNQRKGKVISLFDLKITVLIEGHVDSKDGSALPFEGSINVPEVAFDSEASSYQFDISIFKETSELSEAKPLIRSELLPKLRQIFQQFGKDLLATHGNDIQVPESQVKSNYTRGNQKSSFTEIKDSASKPKKNALPSSTSTSAPVSSTNKVPQNGSGNSTSIYLEPTFNVPSSELYETFLDKQRILAWTRSAQFFNSGPKLETKEKFELFGGNVISELVSCEKDKKLVFHWKLKDWSAPFNSTIEMTFHESQEFHETKLQVKWTGIPVGEEDRVRANFEEYYVRSIKLTFGFGAVL
